Data taken from publication PMC5050587, “Enzymatic fine-tuning for 2-(6-hydroxynaphthyl) β-D-xylopyranoside synthesis catalyzed by the recombinant β-xylosidase BxTW1 from Talaromyces amestolkiae” (Microbial Cell Factories, 2016).

What was measured:
[1] = target: T1, β-xylosidase BxTW1 (rBxTW1) (Talaromyces amestolkiae, UniProt A0A0H3W535); assay: competitive product inhibition of pNPX hydrolysis by purified enzyme; format: biochemical
T1 construct: mature BxTW1 without its signal peptide, expressed in Pichia pastoris GS115
T1 sequence (A0A0H3W535 22-797): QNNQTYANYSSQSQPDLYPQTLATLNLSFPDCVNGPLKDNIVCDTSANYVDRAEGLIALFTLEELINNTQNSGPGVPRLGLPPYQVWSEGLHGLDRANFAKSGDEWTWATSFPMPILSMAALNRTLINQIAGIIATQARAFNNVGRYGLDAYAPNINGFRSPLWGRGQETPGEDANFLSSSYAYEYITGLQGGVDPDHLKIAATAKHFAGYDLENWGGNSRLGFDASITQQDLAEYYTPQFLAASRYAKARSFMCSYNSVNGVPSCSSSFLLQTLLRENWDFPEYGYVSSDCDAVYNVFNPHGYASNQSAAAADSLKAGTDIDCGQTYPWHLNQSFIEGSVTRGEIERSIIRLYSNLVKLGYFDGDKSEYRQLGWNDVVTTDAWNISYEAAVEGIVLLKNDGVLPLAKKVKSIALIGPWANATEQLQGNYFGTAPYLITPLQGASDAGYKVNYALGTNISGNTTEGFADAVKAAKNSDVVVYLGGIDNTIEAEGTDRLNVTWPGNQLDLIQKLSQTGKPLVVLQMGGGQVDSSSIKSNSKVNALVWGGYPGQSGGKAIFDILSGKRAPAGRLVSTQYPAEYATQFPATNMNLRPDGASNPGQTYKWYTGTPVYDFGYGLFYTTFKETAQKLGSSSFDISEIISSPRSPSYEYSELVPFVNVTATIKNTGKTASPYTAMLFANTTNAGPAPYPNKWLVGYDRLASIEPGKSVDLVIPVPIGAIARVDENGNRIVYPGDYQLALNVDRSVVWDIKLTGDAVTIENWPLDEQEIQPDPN

[2] = target: recombinant β-xylosidase BxTW1 from Talaromyces amestolkiae (Talaromyces amestolkiae); assay: SEC; Superose 12 HR 10/30 column, molecular mass in native conditions, performed as described previously [20]
[3] = substrate: OC1OC[C@@H](O[C@@H]2OC[C@@H](O[C@@H]3OC[C@@H](O)[C@H](O)[C@H]3O)[C@H](O)[C@H]2O)[C@H](O)[C@H]1O; assay: Michaelis-Menten kinetics of purified enzyme (Km); format: biochemical, Talaromyces amestolkiae
[4] = substrate: OC1OC[C@@H](O[C@@H]2OC[C@@H](O[C@@H]3OC[C@@H](O[C@@H]4OC[C@@H](O[C@@H]5OC[C@@H](O[C@@H]6OC[C@@H](O)[C@H](O)[C@H]6O)[C@H](O)[C@H]5O)[C@H](O)[C@H]4O)[C@H](O)[C@H]3O)[C@H](O)[C@H]2O)[C@H](O)[C@H]1O; assay: Michaelis-Menten kinetics of purified enzyme (Km); format: biochemical, Talaromyces amestolkiae
[5] = substrate: O=[N+]([O-])c1ccc(O[C@@H]2OC[C@H](O)[C@H](O)[C@H]2O)cc1; assay: Michaelis-Menten kinetics of purified enzyme (Km); format: biochemical, Talaromyces amestolkiae
[6] = substrate: OC1OC[C@@H](O[C@@H]2OC[C@@H](O)[C@H](O)[C@H]2O)[C@H](O)[C@H]1O; assay: Michaelis-Menten kinetics of purified enzyme (Km); format: biochemical, Talaromyces amestolkiae
[7] = substrate: O=[N+]([O-])c1ccc(O[C@@H]2O[C@@H](CO)[C@H](O)[C@H]2O)cc1; assay: Michaelis-Menten kinetics of purified enzyme (Km); format: biochemical, Talaromyces amestolkiae
[8] = substrate: OC1OC[C@@H](O[C@@H]2OC[C@@H](O[C@@H]3OC[C@@H](O[C@@H]4OC[C@@H](O)[C@H](O)[C@H]4O)[C@H](O)[C@H]3O)[C@H](O)[C@H]2O)[C@H](O)[C@H]1O; assay: Michaelis-Menten kinetics of purified enzyme (Km); format: biochemical, Talaromyces amestolkiae
[9] = substrate: OC1OC[C@@H](O[C@@H]2OC[C@@H](O[C@@H]3OC[C@@H](O[C@@H]4OC[C@@H](O[C@@H]5OC[C@@H](O)[C@H](O)[C@H]5O)[C@H](O)[C@H]4O)[C@H](O)[C@H]3O)[C@H](O)[C@H]2O)[C@H](O)[C@H]1O; assay: Michaelis-Menten kinetics of purified enzyme (Km); format: biochemical, Talaromyces amestolkiae
[10] = substrate: O=[N+]([O-])c1ccc(O[C@@H]2OC[C@@H](O)[C@H](O)[C@H]2O)cc1; assay: Michaelis-Menten kinetics of purified enzyme (Km); format: biochemical, Talaromyces amestolkiae

For `OC1OC[C@@H](O)[C@H](O)[C@H]1O` (stereo partly shown) [xylose], which Ki [1] is on record?
Its Ki is 1700 ± 300 µM.

Which stoichiometry N [2] does the source give for “recombinant β-xylosidase BxTW1 from Talaromyces amestolkiae (enzyme)” here?
Its stoichiometry N is 2.

B1: β-xylosidase BxTW1 (rBxTW1) (Talaromyces amestolkiae) (protein)
chain: QNNQTYANYSSQSQPDLYPQTLATLNLSFPDCVNGPLKDNIVCDTSANYVDRAEGLIALFTLEELINNTQNSGPGVPRLGLPPYQVWSEGLHGLDRANFAKSGDEWTWATSFPMPILSMAALNRTLINQIAGIIATQARAFNNVGRYGLDAYAPNINGFRSPLWGRGQETPGEDANFLSSSYAYEYITGLQGGVDPDHLKIAATAKHFAGYDLENWGGNSRLGFDASITQQDLAEYYTPQFLAASRYAKARSFMCSYNSVNGVPSCSSSFLLQTLLRENWDFPEYGYVSSDCDAVYNVFNPHGYASNQSAAAADSLKAGTDIDCGQTYPWHLNQSFIEGSVTRGEIERSIIRLYSNLVKLGYFDGDKSEYRQLGWNDVVTTDAWNISYEAAVEGIVLLKNDGVLPLAKKVKSIALIGPWANATEQLQGNYFGTAPYLITPLQGASDAGYKVNYALGTNISGNTTEGFADAVKAAKNSDVVVYLGGIDNTIEAEGTDRLNVTWPGNQLDLIQKLSQTGKPLVVLQMGGGQVDSSSIKSNSKVNALVWGGYPGQSGGKAIFDILSGKRAPAGRLVSTQYPAEYATQFPATNMNLRPDGASNPGQTYKWYTGTPVYDFGYGLFYTTFKETAQKLGSSSFDISEIISSPRSPSYEYSELVPFVNVTATIKNTGKTASPYTAMLFANTTNAGPAPYPNKWLVGYDRLASIEPGKSVDLVIPVPIGAIARVDENGNRIVYPGDYQLALNVDRSVVWDIKLTGDAVTIENWPLDEQEIQPDPN
notes: mature BxTW1 without its signal peptide, expressed in Pichia pastoris GS115
B1 was tested. Which Km [3] did it give?
Its Km is 190 ± 10 µM.

What about the Vmax [3] of the same molecule?
Its Vmax is 9 µmol/min/mg.

What about the kcat [3] of the same molecule?
Its kcat is 30 s⁻¹.

What about the kcat/Km [3] of the same molecule?
Its kcat/Km is 160000 M⁻¹ s⁻¹.

What about the Km [4] of the same molecule?
Its Km is 210 ± 20 µM.

What about the Vmax [4] of the same molecule?
The Vmax was 4.27 µmol/min/mg.

What about the kcat [4] of the same molecule?
The kcat was 14.2 s⁻¹.

And the kcat/Km [4]?
The kcat/Km was 69000 M⁻¹ s⁻¹.

And the Km [5]?
The Km was 1600 ± 100 µM.

What about the Vmax [5] of the same molecule?
Its Vmax is 8.3 µmol/min/mg.

What about the kcat [5] of the same molecule?
Its kcat is 28 s⁻¹.

And the kcat/Km [5]?
Its kcat/Km is 17000 M⁻¹ s⁻¹.

What about the Km [6] of the same molecule?
The Km was 510 ± 30 µM.

And the Vmax [6]?
The Vmax was 26.4 µmol/min/mg.

And the kcat [6]?
The kcat was 87.9 s⁻¹.

What about the kcat/Km [6] of the same molecule?
The kcat/Km was 170000 M⁻¹ s⁻¹.

What about the Km [7] of the same molecule?
Its Km is 4300 ± 300 µM.

And the Vmax [7]?
The Vmax was 14.9 µmol/min/mg.

What about the kcat [7] of the same molecule?
Its kcat is 49.8 s⁻¹.

What about the kcat/Km [7] of the same molecule?
Its kcat/Km is 12000 M⁻¹ s⁻¹.

And the Km [8]?
The Km was 200 ± 10 µM.

What about the Vmax [8] of the same molecule?
The Vmax was 6.34 µmol/min/mg.

And the kcat [8]?
Its kcat is 21.1 s⁻¹.

What about the kcat/Km [8] of the same molecule?
Its kcat/Km is 100000 M⁻¹ s⁻¹.

What about the Km [9] of the same molecule?
The Km was 220 ± 10 µM.

What about the Vmax [9] of the same molecule?
The Vmax was 4.48 µmol/min/mg.

And the kcat [9]?
The kcat was 14.9 s⁻¹.

What about the kcat/Km [9] of the same molecule?
Its kcat/Km is 68000 M⁻¹ s⁻¹.

And the Km [10]?
Its Km is 200 ± 10 µM.

What about the Vmax [10] of the same molecule?
Its Vmax is 20.8 µmol/min/mg.

And the kcat [10]?
Its kcat is 69.3 s⁻¹.

And the kcat/Km [10]?
The kcat/Km was 336000 M⁻¹ s⁻¹.
